Earlier results, collected in PMC5494978.

Molecular target: Bfd (Pseudomonas aeruginosa) (UniProt Q9HY80)
Chain of UniProt Q9HY80 (Q9HY80 whole entry): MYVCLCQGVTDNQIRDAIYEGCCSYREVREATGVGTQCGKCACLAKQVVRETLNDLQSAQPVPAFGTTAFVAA

For BfrB (from UniProt Q9HY79), the Kd is listed as 3000 nM.
